B1: TPR t1 (parent)
chain: GACCAAUCUGCCCUCAGAGCUCGAGAACAUCUUCGGAUGCAGAGGAGGCAGGCUUCGGUGGCGCGAUAGCGCCAACGUCCUCAACCUCCAAUGCAUCCCACCACAUGAUGAUGCCUGAAGAGCCUUGGUUUUUUG

Variants of: B1
Test: polymerase ribozyme fitness, log enrichment relative to wild type (log ratio); higher = more active; in vitro selection for triplet polymerase activity
Method in brief: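 Genotype fitness is the logarithm of its enrichment divided by wild-type enrichment, using inverse-variance-weighted averages of replicates. That logarithm is base 2. Enrichment was measured by Illumina sequencing of input and output libraries from one triplicate in vitro selection round, with frozen incubation at −7 °C, on PCR-built, transcribed mutant libraries of each subunit of a heterodimeric triplet polymerase ribozyme, retaining genotypes with ≥10 input reads and ≥1 read per output.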

Variant | polymerase ribozyme fitness (log ratio)
GACCAAUCUGCGAUCAGAGCUCGAGAACAUCUUCGAAUGCAGAGGACGCAGGCUUCGGUGGCGCGAUAGCGCCAACGUCCUCAACUUCCAAUGCAUCCCACCACAUGAUGAUGGCUGAAGAGCCUUGGUUUUUUG [C12G C13A G36A G47C C86U C114G] | -6.13
GACCAAUCUGCGCUAAGAGCUCGAGAACAUCUUCGGAUGCAGAGGAGGCCGGCUUCGGUGGCGCGAUAGCGCCAACGUCCUCAACCUCCAAUGCAUCCCACCACAUGAUGAUGCCUGAAGAGCCUUGGUUUUUUG [C12G C15A A50C] | -2.29
GACCAAUCUGCGCUGAGAGCUCGAGAACAUCUUCGGAUGCAGAGGAGGCAUGCUUCGGUGGCGCGAUAGCGCAAACGUCCUCAACCUCCAAUGCAUCCCACCACAUGAUGAUGCCUUAAGAGCCUUGGUUUUUUG [C12G C15G G51U C73A G117U] | -2.07
GACCAAUCUGCGCUCAGAGCUCGAGAACAUCUUCGGAUGCAGAGGAGGCAGGCUUCGGUGGCGCGAUAGCGCCAUCGUCCUCAACCUCCAAUGCAUCCCACCACAUGAUGAUGCCUGAAGAGCCUUGGUUUUUUG [C12G A75U] | 0.372
GACCAAUCUGCGCUUAGAGCUCGAGAACAUCUUCGGAUGCAGAGGAGGCAGGCUUCGGUGGCGCGAUAGCGCCUACGUCCUCAACCUCCAAUGCAUCCCACCACAUGAUGAUGCCAAAAGAGCCUUGGUUUUAUG [C12G C15U A74U U116A G117A U133A] | -1.36
GACCAAUCUGCGCUUAGAGCUCGAGAACAUCUUCGGAUGCAGAGGAGGCAGGCUUCGGUGGAGCGAUAGCGCCAACGUCCUCAACCUCCAAUGCAUCCCACCACAUGAUGAUGCCUGAAGAGCCUUGGUUUUUUG [C12G C15U C62A] | -1.99
GACCAAUCUGCGCUCAGAGCUCGAGAACAUCUUCGGAUGCAGAGGAGGCAGGCUUCGGUGGCGCGAUAGCGCCAACGUCCUCAACCUCCAAUGCAUCCCCCCACAUGAUGAUGCCUGAAGAGCCUUGGUUUUUUG [C12G A100C] | -0.741
GACCAAUCUGCGCUGAGAGCUCGAGAACAUCUUCGGAUGCAGAGGAGGCAGGCUUCGGUGGCGCGAUAGCGCCAACGUCCUCAACCUCCAAUGCAUCCCACCACAUGAUGAUGCCUGAAGAGUCUUGGUUUUUUG [C12G C15G C123U] | -1.81
GACCAAUCUGCGCUCAGAGCUCGAGAACAUCUUCGGAUGCAGAGGUGGAAGGCUUCGGUGGCGCGAUAGCGCCAACGUCCUCAACCUCCAAUGCCUCCCACCACAUGAUGAUGCCUGAAGAGCCUUGGUUUUUUG [C12G A46U C49A A95C] | -2.16
GACCAAUCUGCGCUAAGAGCUCGAGAACAUCUUCGGAUGCGGAGGAGGCAGGCUUCGGUGGCGCGAUAGCGCCAACGUCCUCAACCUCCAAUGCAUCCCACCACAUGAUAAUGCCUGAAGAGCCUUGGUUUUUUG [C12G C15A A41G G110A] | -4.25
GACCAAUCUGCGCUCAGAGCUCGAGAACAUCUUCGGAUGCAGAGGAGGCAGGCUUCGGUGGCGCGAUAGCGCCAACGUCCUCAACCUCCAAUGCAUCCCACCACAUGAUGAUGCCUGAAGCGCCUUGGUUUUUUG [C12G A121C] | 1.5
GACCAAUCUGCGUUCAGAGAUCGAGAACAUCUUCGGAUGAAGAGGAGGCAGGCUUUGGUGGCGCGAUAGCGCCAACGUCCUCAACCUCCAAUGCAUCCCACCACAUGAUGAUGUAUGAAGAGCCUUGGUUUUUUG [C12G C13U C20A C40A C56U C114U C115A] | -3.7
GACCAAUCUGCGCUCAGAGCUCGAGAACAUCUUCGGAUGCAGAGGAGGCAGGCUUCGGUGGCGCGAUAGCGCCAACGUCCUCAACCUCCAAUGCAUCCCCCCACAUGAUGAUUCCUGAAGAGCCUUGGUUUUUUG [C12G A100C G113U] | -5.35
GACCAAUCUGCGUUCAGAUCUCGAGAACAUCUUCGGAUGCAGACGAGGCAGGCUUCGGUGGCGCGAUAGCGCAAACGUCCUCAACCUCCAAUACAUCCCACCACAUGAUGAUGCCUGAAGAGCCUUGGUUUUUUG [C12G C13U G19U G44C C73A G93A] | -4.75
GACCAAUCUGCGCUCAGAGCUCGAGAACAUCUUCGGAUGCAGAGGAGGCUGGCUUCGGUGGCGCGAUAGCGCUAACGUCCUCAACCUCCAAUGCAUCCCACCACAUGAUGAUGCCUGAAGAGCCUUGGUUUUUUG [C12G A50U C73U] | -0.885
GACCAAUCUGCGCUCAGAGCUCGAGAACAUCUUCGGAUGCAGAGGAGGCAGGCUUCGGUGGCGCGCUAGCGCCAACGUCCUCAACCUCCAAUGCAUCCCACCACAUGAUGAUGCCUGAAGAGCCUUGGUUUUUUG [C12G A66C] | -0.578
GACCAAUCUGCGCUCAGAGCUCGAGAACAUCUUCGGAUGCAGAGGAGGCAGGCUUCGGUGGCGCGAUAGCGCCAACGUCCUCCACCUCCAAUGCAUCCCACCACAUGAUGAUGCCUGAAGAGCCUUGGUUUUUUG [C12G A83C] | -1.43
GACCAAUCUGCGCUCAGAGCUCGAGAACAUCUUCGGAUGCAGAGGUGGAAGGCUUCGGUGGCGCGAUAGCGCCAACGUCCUCAACCUCCAAUGCAUCCCACCACAUGAUGAUGCCUGAAGAGCCUUGGUUUUUUG [C12G A46U C49A] | -1.36
GACCAAUCUGCGCUAAGAGCUCGAGAACAUCUUCGGAUUCGGAGGAGGGAGGCUUCGGUGGCGCGAUAGCGCCAACGUCCUCAACCUCCAAUGCAUCCCACCACAUGAUGAUGCCUGAAGAGCCUUGGUUUUUUG [C12G C15A G39U A41G C49G] | -4.44
GACCAAUCUGCGCUCAGAGAUCGAGUACAUCUUCGGAUGCAGAGGAGGCAGGCUUCGGUGGCGCGAUAGCGCCAACGUCCUCAACCUCCAAUGCAUCCCACCACAUGAUGAUGCCUGAAGAGCCUUGGUUUUUUG [C12G C20A A26U] | -5.8
GACCAAUCUGCGCUCAGAGCUCGAGAACAUCUUCGGAUGCAGAGGAGGCAGGCUUCGGUGGCGCGAUAGCGCCCACGUCCUCAACCUCAAAUGCAUCCCACCACAUGAUGAUGCCUGAAGAGCCUUGGUUUUUUG [C12G A74C C89A] | -1.6

Reference: the RNAGym collection of RNA variant scans (doi:10.1073/pnas.2313332121)
